What all share (assay): cell-based or functional assay
For assay [1], the target named is RpPpsR2 mutant L110A (NLSx3-MS2-RpPpsR2 mutant) (bacteriophage MS2; Rhodopseudomonas palustris) (UniProt P03612).
For assay [2], the target named is RpPpsR2 domain-modified body D4-D1-D2 (NLSx3-MS2-RpPpsR2 mutant) (bacteriophage MS2; Rhodopseudomonas palustris) (UniProt P03612).
Assay [3] deals with RpPpsR2 domain-modified body D1-D2 (del C 15) (NLSx3-MS2-RpPpsR2 mutant) (bacteriophage MS2; Rhodopseudomonas palustris) (UniProt P03612).
The target of assay [4] is RpPpsR2 mutant (with Q105T and L137E introduced) (NLSx3-MS2-RpPpsR2 mutant) (bacteriophage MS2; Rhodopseudomonas palustris) (UniProt P03612).
Assay [5] concerns the target RpPpsR2 mutant (with Q105S and L137E introduced) (NLSx3-MS2-RpPpsR2 mutant) (bacteriophage MS2; Rhodopseudomonas palustris) (UniProt P03612).

As for “wild-type RpBphP1 (NLSx3-RpBphP1-p65-HSF1)”, the gene activation by light irradiation (NIR against Dark), CPTS luminescence reporter in HEK293T cells in assay [1] was found to be 13.4 times. The light-dependent activation (NIR against Dark), CPTS luminescence reporter in HEK293T cells in assay [2] came out at 7.2 times; in assay [3] it was 9.6 times.

With “RpBphP1 mutant (with Q502A and E513A introduced) (NLSx3-RpBphP1 mutant-p65-HSF1)”, the light-dependent activation (ratio of NIR signal intensity to Dark signal intensity), CPTS luminescence reporter in HEK293T cells was more than 10 times in assay [4] and 10 > in assay [5].

Values taken from US20260001920A1.
